The target in the test is Mouse IMPα1 residues 70–529 (lacking the IMPβ binding domain) (mouse, UniProt P52293 70-529). Description: crystal structure. The note with it: both partners purified.

Two molecules from article PMC10303457 (Viruses, 2023) can be followed below.

SGKRKKIRTIAAYPLGVGKS [HeV M NLS1 peptide (untagged)]: the binding result is listed as “binds”.
The same measure for VRRAGKYYSVEYCKRKID [HeV M NLS2 peptide (untagged)]: “binds”.
